Reference: publication PMC7113858 (Journal of Virological Methods, 2017)
Changes are numbered by the printed parent chain. Like-named read-outs stand apart in the source and are kept apart here.

B1: 43A9 (antibody, V domains shown)
VH: QVQLQQSGAELARPGASVKLSCNASGYIFSSYWMQWVKQRPGQGLEWIGAIYPGDGDTRYSQKFRGKATVTADKSSSTAYMQLSSLASADSAVYYCARFGDGYYYPMDYWGQGTSVTVSS
VL: DIVMTQAAPSVPVTPGESVSISCRSSKSLLHSNGNTYLYWFLQRPGQSPQLLIYRMSNLASGVPDRFSGSGSGTAFTLRISRVEAEDVGVYYCMQHLEYPFTFGSGTKLEIK
B2: MAb 45E11 (antibody, V domains shown)
VH: QVQLKESGPGLVAPSQSLSITCTVSGFSLTGFGVNWVRQPPGKGLEWLGMIWGDGGTDYNSTLKSRLSFSKDNSKSQVFLKMNSLQTDDTARYYCARAAGTGDYFDYWGQGTTLTVSS
VL: DIQMTQSPASLSASVGETVTITCRASENIYSYLAWYQQKQGKSPQLLVYNAKTLAEGVPSRFSGSGSGTQFSLKINSLQPEDFGSYYCQHHYGTPWTFGGGTKLEIK
B3: MAb 45C2 (antibody, V domains shown)
VH: B2 VH with F32Y, T62A, F69I, S70T, Q86L, T87P
VL: B2 VL with Y30D, S63G, N76Y, S85N

Key:
S protein of MERS-CoV = S protein of MERS-CoV (MERS-CoV, strain not named; EMC/2012 …, UniProt K0BRG7)
[1] = molecular target: T1, mouse Fc-tagged RBD of MERS-CoV (MERS-CoV, strain not named; EMC/2012 …, UniProt K0BRG7)
N protein of MERS-CoV = N protein of MERS-CoV (MERS-CoV, strain , UniProt K9N4V7); experiment: immunostaining of cells or tissue
[2] = molecular target: mouse Fc-tagged RBD of Bt-CoV-HKU5 (Bat coronavirus HKU5 (BtCoV/HKU5/2004), UniProt A3EXD0); experiment: immunostaining of cells or tissue
[3] = molecular target: mouse Fc-tagged RBD of Bt-CoV-HKU4 (Bat coronavirus HKU4 (BtCoV/HKU4/2004), UniProt A3EX94); experiment: immunostaining of cells or tissue
[4] = molecular target: T1, mouse Fc-tagged RBD of MERS-CoV; experiment: immunostaining of cells or tissue
[5] = molecular target: receptor-binding domain (RBD) of the SARS-CoV S protein, amino acids 318-510, histidine-tagged (SARS-CoV, strain , UniProt P59594); experiment: ELISA

Binder | binding result (S protein of MERS-CoV) | binding result [1] | binding result (N protein of MERS-CoV) | binding result [2] | binding result [3] | binding result [4] | binding result [5]
B1 | binds | binds |  |  |  |  | 
B2 |  |  | no binding | no binding | no binding | binds | no binding
B3 |  |  | no binding | no binding | no binding | binds | no binding
